To fix the notation:
B1: NPM1 oligomerization domain (NPM1^OD, aa 1-122), tag cleaved (domain or fragment, UniProt P06748 1-122, looked up)
chain: MEDSMDMDMSPLRPQNYLFGCELKADKDYHFKVDNDENEHQLSLRTVSLGAGAKDELHIVEAEAMNYEGSPIKVTLATLKMSVQPTVSLGGFEITPPVVLRLKCGSGPVHISGQHLVAVEED
notes: source: E. coli (BL21(DE3), pLysS BL21(DE3), CodonPlusRIL or BL21(Rosetta)), purified
B2: NPM1 histone binding domain (NPM1^HBD, aa 120-241), tag cleaved (domain or fragment, UniProt P06748 120-241, looked up)
chain: EEDAESEDEEEEDVKLLSISGKRSAPGGGSKVPQKKVKLAADEDDDDDDEEDDDEDDDDDDFDDEEAEEKAPVKKSIRDTPAKNAQKSNQNGKDSKPSSTPRSKGQESFKKQEKTPKTPKGP
notes: as for B1
B3: NPM1 histone and RNA-binding domains (NPM1^HRBD, aa 120-294), tag cleaved (domain or fragment, UniProt P06748 120-294, looked up)
chain: EEDAESEDEEEEDVKLLSISGKRSAPGGGSKVPQKKVKLAADEDDDDDDEEDDDEDDDDDDFDDEEAEEKAPVKKSIRDTPAKNAQKSNQNGKDSKPSSTPRSKGQESFKKQEKTPKTPKGPSSVEDIKAKMQASIEKGGSLPKVEAKFINYVKNCFRMTDQEAIQDLWQWRKSL
notes: also called NPM^HRBD; source: E. coli (BL21(DE3), pLysS BL21(DE3), CodonPlusRIL or BL21(Rosetta)), purified
B4: HIV-1 Rev full-length (Rev^FL, aa 1-116), tag cleaved (natural protein)
chain: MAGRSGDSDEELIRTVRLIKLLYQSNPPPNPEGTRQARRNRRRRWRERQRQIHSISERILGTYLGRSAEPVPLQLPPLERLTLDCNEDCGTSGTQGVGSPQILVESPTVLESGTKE

In data set [1] the target is HSV-1 US11 full-length (US11^FL, aa 1-152), tag-free (HSV-1) (UniProt P04487). The experiment in a line: SEC-MALS; aSEC (Superdex 200 10/300) with MALS/RI of NPM1^OD, US11^FL and their mixture, RNase A treated; 30 mM Tris-HCl pH 7.5, 150 mM NaCl, 5 mM MgCl2, 3 mM DTT.
The target in data set [2] is FITC-labelled CIGB-300. The experiment in a line: fluorescence polarisation; increasing amounts of NPM1 variants, GST-Rev, GST-US11 or GST titrated into 0.1 uM FITC-labelled CIGB-300; 25 C; 30 mM Tris/HCl pH 7.5, 150 mM NaCl, 5 mM MgCl2, 1 mM TCEP; quadratic ligand binding equation.
The target in data set [3] is HSV-1 US11 full-length (US11^FL, aa 1-152), tag-free (HSV-1) (UniProt P04487). The experiment in a line: ITC; 1.2 mM NPM1^FL titrated into 60 uM US11^FL; both treated with RNase A; 25 C; apparent Kd; endothermic.
Data set [4] deals with B4. The data set can be described thus: ITC; NPM1 variants titrated into Rev^FL (tags cleaved); 25 C; 30 mM Tris-HCl pH 7.5, 150 mM NaCl, 5 mM MgCl2, 1 mM TCEP; VP-ITC. To be noted: both partners purified. For orientation: In ITC the heat of successive injections is recorded.
Data set [5] deals with the molecule itself. The experiment in a line: SEC-MALS; aSEC (Superdex 200 10/300) with MALS/RI of NPM1^OD, US11^FL and their mixture, RNase A treated; 30 mM Tris-HCl pH 7.5, 150 mM NaCl, 5 mM MgCl2, 3 mM DTT.
Data set [6] concerns the target B3. The data set can be described thus: ITC; NPM1 variants titrated into Rev^FL (tags cleaved); 25 C; 30 mM Tris-HCl pH 7.5, 150 mM NaCl, 5 mM MgCl2, 1 mM TCEP; VP-ITC. To be noted: both partners purified.
Data set [7] addresses B2. The data set is described as above. To be noted: both partners purified.
Data set [8] has as its target T1, NPM1 full-length (NPM1^FL, aa 1-294), tag cleaved (UniProt P06748 1-294).
T1 construct: source: E. coli (BL21(DE3), pLysS BL21(DE3), CodonPlusRIL or BL21(Rosetta)), purified
The description is as above. To be noted: both partners purified.

Data set [9] deals with B1. The description is as above. Conditions: both partners purified.

For the molecule “NPM1 oligomerization domain (NPM1^OD, aa 1-122), tag cleaved (from UniProt P06748 1-122) (domain or fragment)”, in [1], the stoichiometry N (US11^FL monomer per NPM1^OD pentamer) is 1. Moreover, in data set [2], the Kd turned out to be 6.6 µM.

Regarding “NPM1 full-length (NPM1^FL, aa 1-294), tag cleaved (from UniProt P06748 1-294) (natural protein)”, the Kd in data set [3] was determined as 4 µM; in data set [2], 1.4 µM.

One may read the stoichiometry N as a count of units in the complex or per binding partner. In the case of B1, in data set [4], the dH is -3.79 ± 0.11 kcal/mol and the “stoichiometry N” value worked out at 0.94 sites. In addition, the “stoichiometry N” value in [5] came out at 5.

As to B2, in [4], the dH is -1.71 ± 0.2 kcal/mol and the “stoichiometry N” value turned out to be 0.85 sites.

As to B3, in data set [4], the dH was -3.23 ± 0.31 kcal/mol and the “stoichiometry N” value was 0.76 sites.

As for B4, the Kd in [6] was 18 µM; in data set [7], 5.8 µM; in data set [8] it was 0.41 µM; in data set [9], 0.013 µM.
